Assay: soluble on expression in E. coli; label from the status in PepcDB or PDB records
For “MFSIIIPIYNSENYLRYSIESVLNQSIGFKENIELILIDDGSVDSSPQICESFKNLYPNNIKIMKIENSGPSAARNCGLSNVSERSKFIGFLDSDDAFSQNALQSVYDFFCDSEHVNIAVLPVYYTGEKEGGHKLNNRFEKGTRVINILNDYKAIHFYIGGTFYRRHTLTSTVLFDESIKFWEDAIFFNQLLLKEKRYGAVAEGKYFYRKRKEQDSLVDRSWFNKKRYTYLLNECYMTLLMDSFNKYDIVLPYLQFLIVYHIKLFLYPNYRDVYKSVLDQQEQRVFVDDFIKVLKFIDPQFIKEQDMPMYYKEFMFHLLKENTEALENIKKERVLHSSCTVTSAKIKGLRLELTGHFINQYYEMKENDRIYIKYFKRLKKCKRKELKKTIEVWGYKLRDFRYAGFVVEIPIWAFAFDFVLKTPNDSLELNHVNIFKSLLTRVFKKRLEHHHHHH”, the “soluble on expression in E. coli” value was “soluble”. In the case of “MNYAFVVQARLGSTRLPGKILKPFYGNQSILDLMVHKLSAISNIPVIIATTNSVINEPIEKKALALGVKCFRGEENDVLKRFIDVAEYFDIQGIFRICSDNPFLDVHAARQLVEIAMKSCNDYISFDIDGTPSIKTHFGFWGEFVTLDALKRVIGFTDDLLYREHVTNYIYSHPELFNIQWISGSPVVSKHHNIRLTIDTLEDFSVAQRIYRDLQEKRVEISIEVIVDYVRRHAEYIQLMKQQIKKNSKLEHHHHHH”, the “soluble on expression in E. coli” value is reported as “soluble”. With “MSDSTQMEANAAINEIKKRTRKLDQSLQMRFCADQFFIGNHCTKLASGKSIIISQNSKNRICLRFFMAADPLVGYTGRDFGIAFNQIDHISLKDEQQENPAVLICTLNLSSYTKMCKLQTGLKDVVEKPFLYNKSLARNLTFILKPWNDDPDTFVKISYNDEHREYVHSYDYDVAKSLMFKEVQAVWEQSLKEQLQRRHQTGRVYLTSQLSEMTPREWVQFLADQKLSKIVCHNGSIQYARVEDNPHGRKHTAVATNGFDHRGTRVLNSFGKAHASLATQEKSYAKKRKLTEQSLKLIYRNDRSVWLEGSCAKNLKMPKINSEPNMGEFMGWPDMDNAMTHPTSNFENEDVMKSTKQPNDFVSFEQLQAPPPVLQRQNGAIYSTQSVAFTHISGNDGVEDLTEKISHLGEEAYNIDMANALHAFSDNWHYEIHPNTVHNASFEQLHIGDGNSSIGTIGFNPLEPYPQSSFPQSNNWQQAHGDFTFPQVSFPNTQQGSCLPSTPTAALPPTRPVVEKIPPDTQLFTFPPSGSCTTGMDPVVLLVKDIKTLDRKEFLNDSVMAFMLNYIAFMLSSELMKSVHMCNTFLFVNLTRLLPPLCFSKRRPIEPEHIKIVKDNCPRVLRWTRKFDVLAKDYIIIPINEDLHWLVIAVINPSGAIVDMSNEEASRAAPKCYIVFFDPLSGLDPSKKNHMCHCIKIYLAQLYENTKAPGMKFASKNPTIYDEERVVVTRAENTPIQDNFYDCGLYVLHFIEGLFCYPNRPVNVNDFPNFDWSKFFPEANKMCDLMRDKVYNLILQQADKPARSRLAKFERENKCGLSREGALRKARRHSAVNERRTKRHRDYYARHYSLSPPHRNVMNDDPTFMNPRGLAEMPITRLVRRLRIPEDNFPIAY” the “soluble on expression in E. coli” value was “not soluble”. For “QKSNRKDYSLTMQSSVTVQEGMCVHVRCSFSYPVDSDTDSDPVHGYWFRAGNDISWKAPVATNNPAWAVQEETRDRFHLLGDPQTKNCTLSIRDARMSDAGRYFFRMEKGNIKWNYKYDQLSVNVTALTHRP”, the “soluble on expression in E. coli” value was “soluble”. In the case of “MGSDKIHHHHHHMTALDDKTIVRDYFNATGFDRWSRIYGDGEVNFVQKNIRIGHQRTVDTVLSWLEADGNLSDRSFCDAGCGVGSLSLPLAQRGAQAVYASDISAKMVEEARERASQIPNLNNIQLEVSDLASLSGRYDTVICLDVLIHYPESDAAAMLSHLCSLAEQRVLVSFAPKSPVLNVLKRIGQFFPGASKTTRAYQHSETAIAAALAANGFQVQRRAFNKAPFYFSLLLEAVRTA”, the “soluble on expression in E. coli” value is reported as “not soluble”. For “MVRMALEGMSKRKRKRSVQEGENPDDGVRGSPPEDYRLGQVASSLFRGEHHSRGGTGRLASLFSSLEPQIQPVYVPVPKQTIKKTKRNEEEESTSQIERPLSQEPAKKVKAKKKHTNAEKKLADRESALASADLEEEIHQKQGQKRKNSQPGVKVADRKILDDTEDTVVSQRKKIQINQEEERLKNERTVFVGNLPVTCNKKKLKSFFKEYGQIESVRFRSLVCFIPPLEHHHHHH”, the “soluble on expression in E. coli” value was “not soluble”. In the case of “MGSDKIHHHHHHMFLKNAWYVAAWDHEVRTDLQQIMVLGEKICMFRTQSGDLVALEDACPHRKLPLSKGRIKGDTVECGYHGLTFNCAGTCVWAPGASGIPSNARVHAYPLAEKYGLIWIWMGNPALADPSDIFEIENYGNPDWGINRGAAMELDCNYLLMCDNLLDPTHVAWVHQSSFAAEATKDTPLHVTKTDTGIIVHRWMMDHDPAPFYKKVVEFDGNCDRLQHYEVRYPSHALVRAVFTPAGTGGPDGPLHANTFIMDSYNFMTPVSEGKTRYYWFQLRNIRPDDEALSQMMSDDVHHAFEEDRAVLNEVQIGMSSKTSPHIDLPIDGGQLRFRRQLQAMINEEAQVDAQMAE”, the “soluble on expression in E. coli” value is reported as “not soluble”. With “MQVCRQWVTLSLYNNGKWPKMKYQQLENLECGWKWQYLINKWKDGEPVTRYIDKSEIEAAVQKLRAIEHEPTHVLSWIEEHMSSELDNKLKQAIRAKRKRHFNAEQIHTRKKSIDLDYRVWEKLSLKANELGCTLSDAIEYLLSEASRSEKASKTVNSLKEDLSRLLAE” the “soluble on expression in E. coli” value was “not soluble”. With “QGKTTVTAALARLHARQGRRVRVFKCGPDFLDPMILARASGAPVYQLDLWMVGEAEARRLLARAAGEADLILIEGVMGLFDGNPSAADLARRFGVPVLGVINGAAMAQTFGALAYGLAHFQPDLPFSGVLGNRVGSQRHSDILRDCLPPGMRWFGGLPRSAEFELPSRHLGLVQAEELADLDARLDAAADALRASAETDLPEPVTFEVPAPAPLQRSLEGVRIGVARDASFAFLYQANLDLLRELGAELAFFSPLQDQALPAVDSLYLPGGYPELHLGRLQGNRAMAEAIRAHHAAGKPLLAECGGMLYLLDCLEDADGERGELLGLLPGRARLQKRLTALALQEVELPEGRLRGHTFHHSTLDCAVEPLARGVCPNGRNTAEAVFRLGRLTASYIHFYLPSNPQAAAALLAPARDA” the “soluble on expression in E. coli” value was “not soluble”. With “MGSDKIHHHHHHMRSADSSPAYSPIGSLSSSHSFDSIPDQRMNKSLLSLACLILCGMPAIAQQTGPAERSGEPSLAERVFGLEQKQKKLKVYLGIQSFYDQPLVDDESHIGHFKVQELRMSAHGELNRHLSFDWRQRLNRAADGTSFADNLSNAIDIAGVDWHPNDKVSFFFGRQYARFGGIEYDMNPVEIYQYSDLVDYMTCYTSGVNFAWNFHPEQQLQLQVLNAYNNRFADRYHVTPDVATATSYPLLYSAQWNGTLLGGALHMRYAVSMAHQAQERNMWYFTAGNLFNPGKRINGYLDLTYSIEGLDDKGIMTARYGKGKTLTDVKYYALVSKWNFRIFDQVNLFLKGMYENGYAPAQYGESSHTRHSYGYMGGVEYYPTETNFRLFVTYIGRHYRYSATETESTNALRAGLIYQIPFL” the “soluble on expression in E. coli” value was “not soluble”. With “MRGSHHHHHHGSMEEYYMKLALDLAKQGEGQTESNPLVGAVVVKDGQIVGMGAHLKYGEAHAEVHAIHMAGAHAEGADIYVTLEPCSHYGKTPPCAELIINSGIKRVFVAMRDPNPLVAGRGISMMKEAGIEVREGILADQAERLNEKFLHFMRTGLPYVTLKAAASLDGKIATSTGDSKWITSEAARQDAQQYRKTHQSILVGVGTVKADNPSLTCRLPNVTKQPVRVILDTVLSIPEDAKVICDQIAPTWIFTTARADEEKKKRLSAFGVNIFTLETERIQIPDVLKILAEEGIMSVYVEGGSAVHGSFVKEGCFQEIIFYFAPKLIGGTHAPSLISGEGFQSMKDVPLLQFTDITQIGRDIKLTAKPTKE” the “soluble on expression in E. coli” value was “soluble”. With “MSLRTTASEFDNFGYGVSDSLGMRDHVSARDLFVQKFRGKENEMLLCAFDGKHGATNQGHRISLVAKNMFVRNFTKELDEIKNDDEIENALRKAFLNFNKEINGILTAKKNKSFTPVPNMSKEALELNLVDDGNAGCTVSVIYIKDKKLYSANIGDIEALLCRNNGDQFLLTEKHDPTNREEFERIRASGGYVSGGGELDGQLSVSRGVGFFNFLPHTHCGPTIRRFKITNDDDMIILGSKQLWDFISYESAVDIIRKDKNDPMVAAQKLRDFAICYGATDKICVIVLTFGNREGHHHHHH” the “soluble on expression in E. coli” value was “soluble”. For “MGSDKIHHHHHHMKTLKGPAIFLAQFIGDTPPFDKLETMAAWVSSLGYAGVQMPTGGADSFFDLALAAESQTYCDDIAGLLAEYGLEITELSTHLQGQLVAVHPAYDELFDGFAPPELRGKPKERQAWAVEQVKAAAVASRRLGLKAHATFSGSLAWPYLYPWPQRPAGLIEEAFAELGRRWKPILDVFDENGVDAAYEIHPGEDLHDGATFERFLDEVGGHPRANILYDPSHFVLQQLDYLAYIDRYHERIKAFHVKDAEFRPSARSGVYGGYQGWVDRPGRFRSLGDGQVDFKAIFSKLAQYDYDGWAVLEWECALKHPEQGAAEGAPFIRDHIIRVTDKAFDDFASAGSEAGRNRRLLGL”, the “soluble on expression in E. coli” value was “not soluble”. With “ATQFTASILSLYNSEQMLQKTDPMSVISSAMVAATLDLPIDKNLGYAWIVPYGGKAQFQLGYKGYIQLALRTGQYKSINCIPIHEGELQKWNPLTEEIEIDFEKRESDAVIGYAAYFELINGFRKTVYWTKAQVEKHKKKFSKSDFGWKNDWDAMALKTVLKAVLSKWGILSVEMQKAVIEEDETRERIDITNEADSSEIIDSE” the “soluble on expression in E. coli” value was “not soluble”. For “MEKPIIRGYIRENGSVGVRNYVAVIPVDDLSNSASIGVSKLIRGTVAIPHPYGRLQFGKDLDLLFHVLSGTGANPNVAAAIVIGIEENWANKVADKIAETGKPVEVFPVEGNGDLKVIEKASRKAKEFVQEASEKQRTEVDLSSLVLSIKCGESDTTSGLASNPATGYAVDKLIDYGSTVMFGETSELTGAEDIVASRIQDPVLRDKFMRIYNEYVAFIESQGVDLLGSQPTEGNIKGGLSTIEEKALGNIQKLGTKPITCVLDYLDPLGKGSSRLCFVNTSSAAAEAVTLFAAKGSVLHLFTTGQGNVVGHPIIPVVKISANPKTIATMSEHIDVDVSDLLQLKVSLKEAGERIFNYTIRVANGRLTSAEILQHEEFSPIKLYISA”, the “soluble on expression in E. coli” value was “not soluble”. With “MALFFRTRDRPLRPGDPYPLGSNWIEDDDGVNFSLFSENAEKVELLLYSLTNQKYPKEIIEVKNKTGDIWHVFVPGLRPGQLYAYRVYGPYKPELGLRFNPNKVLIDPYAKAINGSVIWNDAVFGYKIGDQNQDLTYDERDSGEYVPKSVVINPYFEWDDEDFIKGKKVPLKDTVIYEVHVKGFTKLRLDLPENIRGTYEGLASEQMISYLKDLGITTVELMPVFHFIDQRFLTDKGLTNYWGYDPINFFSPECRYSSTGCLGGQVLSFKKMVNELHNAGIEVIIDVVYNHTAEGNHLGPTLSFRGIDNTAYYMLQPDNKRYYLDFTGTGNTLNLSHPRVIQMVLDSLRYWVTEMHVDGFRFDLAAALARELYSVNMLNTFFIALQQDPILSQVKLIAEPWDVGQGGYQVGNFPYQWAEWNGKYRDSIRRFWRGEALPYSEIANRLLGSPDIYLGNNKTPFASINYVTSHDGFTLEDLVSYNQKHNEANGFNNQDGMNENYSWNCGAEGPTNDQNVVICREKQKRNFMITLLVSQGTPMILGGDELSRTQRGNNNAFCQDNEITWFDWNLDERKSKFLEFVKKMIQFYRAHPAFRRERYFQGKKLFGMPLKDVTFYTLEGREVDEKTWSSPTQLVIFVLEGSVMDEINMYGERIADDSFLIILNANPNNVKVKFPKGKWELVISSYLREIKPEERIIEGEKELEIEGRTALVYRRIEL” the “soluble on expression in E. coli” value was “soluble”. With “MSLTSPSELRSGKTHRDENFPVASWIIHPRHRDLILAFYNFVRTADDIADHEMLDGDTKLEYLDLLEAELLGRGETQPEAVHLRRALAERGMPPRHALDLLTAFRMDVTKLRYEDWDEVIHYCRYSAMPVGRFMLDVHGESTTTWQASDALCAGLQINNHLQDCGKDYRTLNRVYLPRDVLDAAGAKVEDLGLQKSSPALLKCLQGLAVRTASLLGDGRPLAAEIKDYRLGLEVSVIQAYADRIVRMLQTRDPLSERVHLKPIEFVIASFGAMSSEIVRRSEGHHHHHH” the “soluble on expression in E. coli” value was “soluble”.
